Laboratory results from patent US20150299265A1 (Molecular Partners, published 2015).

target: Human HER2 expressed on tumour cells (human, UniProt P04626 23-1255); test: cell-based or functional assay

% activity vs. DARPin # 41, BT474 cell proliferation [%]	IC50 [nM], inhibition of BT474 cell proliferation (BrdU) [nM]	Binder
65.3	4.47	DARPin #33 (designed binder) MRGSHHHHHHGSDLGIKLLFAASRGQDDEVRILLAAGADVNAKDFEGITPLHAAARSGHLEIVEVLLKAGADVNAKDVEGWTPLHYAASYGHLEIVEVLLKAGADVNAQDNHGATPADLAAQWGHEDIAEVLQKLGGGGSGGGGSRSDLGAKLLVAATSGQDDEVRILLAAGADVNAKDRIGFTPLHRAAFVGHLEIVEVLLKAGADVNAQDDFGHTPADLAASLGHEDIAEVLQKLN
48	3.29	DARPin #32 (designed binder) MRGSHHHHHHGSDLGIKLLFAASRGQDDEVRILLAAGADVNAKDFEGITPLHAAARSGHLEIVEVLLKAGADVNAKDVEGWTPLHYAASYGHLEIVEVLLKAGADVNAQDNHGATPADLAAQWGHEDIAEVLQKLGGGGSGGGGSRSDLGIKLLQAANLGQDDEVRILLATGADVNAKDSIGQTPLHWAARRGHLEIVEVLLKAGADVNAKDEYGVTPLHLAASLGHLEIVEVLLKAGADVNAQDESGETPADLAALHGHEDIAEVLQKLN
6.8	–	DARPin #47 (designed binder) MRGSHHHHHHGSDLGDKLLQSDLGIKLLFAAAKSQDDEVRILLAAGADVNAKDFQSVTPLHIAAQSGHLEIVEVLLKAGADVNAKDVTGDTPLHLAAQHGHLEIVEVLLKAGADVNAQDERGWTPADLAADWGHEDIAEVLQKLGGGGSGGGGSRSDLGIKLLVAAAQGQDDEVRILLAAGADVNAKDQQGATPLHLAAWKGHLEIVEVLLKAGADVNAKDLSGDTPLHIAAWFGHLEIVEVLLKAGADVNAQDTEGYTPADLAALYGHEDIAEVLQKLN
95.1	3.88	DARPin #34 (designed binder) MRGSHHHHHHGSDLGIKLLFAASRGQDDEVRILLAAGADVNAKDFEGITPLHAAARSGHLEIVEVLLKAGADVNAKDVEGWTPLHYAASYGHLEIVEVLLKAGADVNAQDNHGATPADLAAQWGHEDIAEVLQKLGGGGSGGGGSRSDLGKKLLEAARAGQDDEVRILMANGADVNAKDEYGLTPLYLATAHGHLEIVEVLLKNGADVNAVDAIGFTPLHLAAFIGHLEIAEVLLKHGADVNAQDKFGKTAFDISIGNGNEDLAEILQKLN
100	3.34	DARPin #46 (designed binder) MRGSHHHHHHGSDLGKKLLEAARAGQDDEVRILMANGADVNAKDFYGITPLHLAAAYGHLEIVEVLLKHGADVNAHDWNGWTPLHLAAKYGHLEIVEVLLKHGADVNAIDNAGKTPLHLAAAHGHLEIVEVLLKYGADVNAQDKFGKTAFDISIDNGNEDLAEILQKLGGGGSGGGGSRSDLGKKLLEAARAGQDDEVRILMANGADVNATDIHGHTPLHLAAAMGHLEIVEVLLKNGADVNANDWRGFTPLHLAALNGHLEIVEVLLKNGADVNATDTAGNTPLHLAAWFGHLEIVEVLLKNGADVNAQDKFGKTAFDISIDNGNEDLAEILQKLN
68.8	2.56	DARPin #36 (designed binder) MRGSHHHHHHGSDLGIKLLFAAAKGQDDEVRILLAAGADVNAKDFEGYTPLHVAAYDGHLEIVEVLLKAGADVNAKDSQGRTPLHEAAYSGHLEIVEVLLKAGADVNAQDDAGETPADLAAAWGHEDIAEVLQKLGGGGSGGGGSRSDLGAKLLVAATSGQDDEVRILLAAGADVNAKDRIGFTPLHRAAFVGHLEIVEVLLKAGADVNAQDDFGHTPADLAASLGHEDIAEVLQKLN
82.5	5.15	DARPin #28 (designed binder) MRGSHHHHHHGSDLGVKLLWAAARGQDDEVRILLAAGADVNAKDFQGITPLHIAATNGHLEIVEVLLKAGADVNAKDITGETPLHHAADSGHLEIVEVLLKAGADVNAQDKAGVTPADLAAAWGHEDIAEVLQKLGGGGSGGGGSRSDLGAKLLVAATSGQDDEVRILLAAGADVNAKDRIGFTPLHRAAFVGHLEIVEVLLKAGADVNAQDDFGHTPADLAASLGHEDIAEVLQKLN
94.8	2.19	DARPin #37 (designed binder) MRGSHHHHHHGSDLGIKLLFAAAKGQDDEVRILLAAGADVNAKDFEGYTPLHVAAYDGHLEIVEVLLKAGADVNAKDSQGRTPLHEAAYSGHLEIVEVLLKAGADVNAQDDAGETPADLAAAWGHEDIAEVLQKLGGGGSGGGGSRSDLGKKLLEAARAGQDDEVRILMANGADVNAKDEYGLTPLYLATAHGHLEIVEVLLKNGADVNAVDAIGFTPLHLAAFIGHLEIAEVLLKHGADVNAQDKFGKTAFDISIGNGNEDLAEILQKLN
95	1.33	DARPin #29 (designed binder) MRGSHHHHHHGSDLGVKLLWAAARGQDDEVRILLAAGADVNAKDFQGITPLHIAATNGHLEIVEVLLKAGADVNAKDITGETPLHHAADSGHLEIVEVLLKAGADVNAQDKAGVTPADLAAAWGHEDIAEVLQKLGGGGSGGGGSRSDLGKKLLEAARAGQDDEVRILMANGADVNAKDEYGLTPLYLATAHGHLEIVEVLLKNGADVNAVDAIGFTPLHLAAFIGHLEIAEVLLKHGADVNAQDKFGKTAFDISIGNGNEDLAEILQKLN
100	3.77	DARPin #42 (designed binder) MRGSHHHHHHGSDLGAKLLSDLGVKLLWAAARGQDDEVRILLAAGADVNAKDFQGITPLHIAAQSGHLEIVEVLLKAGADVNAKDVTGDTPLHLAAQHGHLVIVEVLLKAGADVNAQDERGWTPADLAADWGHEDIAEVLQKLGGGGSGGGGSRSDLGKKLLEAARAGQDDEVRILMANGADVNATDIHGHTPLHLAAAMGHLEIVEVLLKNGADVNANDWRGFTPLHLAALNGHLEIVEVLLKNGADVNATDTAGNTPLHLAAWFGHLEIVEVLLKNGADVNAQDKFGKTAFDISIDNGNEDLAEILQKLN
99.9	1.97	DARPin #24 (designed binder) MRGSHHHHHHGSDLGDKLLQSDLGIKLLFAAAKSQDDEVRILLAAGADVNAKDFQSVTPLHIAAQSGHLEIVEVLLKAGADVNAKDVTGDTPLHLAAQHGHLEIVEVLLKAGADVNAQDERGWTPADLAADWGHEDIAEVLQKLGGGGSGGGGSRSDLGKKLLEAARAGQDDEVRILMANGADVNAKDEYGLTPLYLATAHGHLEIVEVLLKNGADVNAVDAIGFTPLHLAAFIGHLEIAEVLLKHGADVNAQDKFGKTAFDISIGNGNEDLAEILQKLN
100	1.55	DARPin #45 (designed binder) MRGSHHHHHHGSDLGKKLLEAARAGQDDEVRILMANGADVNAKDFYGITPLHLAAAYGHLEIVEVLLKHGADVNAHDWNGWTPLHLAAKYGHLEIVEVLLKHGADVNAIDNAGKTPLHLAAAHGHLEIVEVLLKYGADVNAQDKFGKTAFDISIDNGNEDLAEILQKLGGGGSGGGGSRSDLGKKLLEAARAGQDDEVRILMANGADVNAKDEYGLTPLYLATAHGHLEIVEVLLKNGADVNAVDAIGFTPLHLAAFIGHLEIAEVLLKHGADVNAQDKFGKTAFDISIGNGNEDLAEILQKLN
97.3	2.99	DARPin #23 (designed binder) MRGSHHHHHHGSDLGDKLLQSDLGIKLLFAAAKSQDDEVRILLAAGADVNAKDFQSVTPLHIAAQSGHLEIVEVLLKAGADVNAKDVTGDTPLHLAAQHGHLEIVEVLLKAGADVNAQDERGWTPADLAADWGHEDIAEVLQKLGGGGSGGGGSRSDLGAKLLVAATSGQDDEVRILLAAGADVNAKDRIGFTPLHRAAFVGHLEIVEVLLKAGADVNAQDDFGHTPADLAASLGHEDIAEVLQKLN
91.2	2.76	DARPin #40 (designed binder) MRGSHHHHHHGSDLGHKLLEAAVAGQDDEVRILLAAGADVNAKDWYGKTPLHFAAGLGHLEIVEVLLKAGADVNAKDEDGQTPLHLAAAYGHLEIVEVLLKAGADVNAQDNDGFTPADLAADSGHEDIAEVLQKLGGGGSGGGGSRSDLGKKLLEAARAGQDDEVRILMANGADVNAKDEYGLTPLYLATAHGHLEIVEVLLKNGADVNAVDAIGFTPLHLAAFIGHLEIAEVLLKHGADVNAQDKFGKTAFDISIGNGNEDLAEILQKLN
99.3	3.3	DARPin #38 (designed binder) MRGSHHHHHHGSDLGHKLLEAAVAGQDDEVRILLAAGADVNAKDWYGKTPLHFAAGLGHLEIVEVLLKAGADVNAKDEDGQTPLHLAAAYGHLEIVEVLLKAGADVNAQDNDGFTPADLAADSGHEDIAEVLQKLGGGGSGGGGSRSDLGIKLLQAANLGQDDEVRILLATGADVNAKDSIGQTPLHWAARRGHLEIVEVLLKAGADVNAKDEYGVTPLHLAASLGHLEIVEVLLKAGADVNAQDESGETPADLAALHGHEDIAEVLQKLN
37.8	4.57	DARPin #27 (designed binder) MRGSHHHHHHGSDLGVKLLWAAARGQDDEVRILLAAGADVNAKDFQGITPLHIAATNGHLEIVEVLLKAGADVNAKDITGETPLHHAADSGHLEIVEVLLKAGADVNAQDKAGVTPADLAAAWGHEDIAEVLQKLGGGGSGGGGSRSDLGIKLLQAANLGQDDEVRILLATGADVNAKDSIGQTPLHWAARRGHLEIVEVLLKAGADVNAKDEYGVTPLHLAASLGHLEIVEVLLKAGADVNAQDESGETPADLAALHGHEDIAEVLQKLN
60.1	4.03	DARPin #22 (designed binder) MRGSHHHHHHGSDLGDKLLQSDLGIKLLFAAAKSQDDEVRILLAAGADVNAKDFQSVTPLHIAAQSGHLEIVEVLLKAGADVNAKDVTGDTPLHLAAQHGHLEIVEVLLKAGADVNAQDERGWTPADLAADWGHEDIAEVLQKLGGGGSGGGGSRSDLGIKLLQAANLGQDDEVRILLATGADVNAKDSIGQTPLHWAARRGHLEIVEVLLKAGADVNAKDEYGVTPLHLAASLGHLEIVEVLLKAGADVNAQDESGETPADLAALHGHEDIAEVLQKLN
